Laboratory results from IntAct's records for PubMed 14527422.

B1: Cullin-3 (Schizosaccharomyces pombe (strain ATCC 38366 / 972)), Q09760 (parent)
chain: MQRSAKLKIRAPRKFSANQVDFATHWEVLQRAIGDIFQKSTSQLSFEELYRNAYILVLHKYGEKLYNHVQDVIRSRLKEETVPAIYKNYDASLLGNALLDIRKNDSYSTSWSRSLEAAHRFLSSLVNSWKDHIVSMQMISSVLKYLDKVYSKSADKVPVNENGIYIFREVVLLNSFEIGEKCVETILILVYLERKGNTINRPLINDCLDMLNSLPSENKKETLYDVLFAPKFLSYTRNFYEIESSTVIGVFGVVEYLKKAEKRFEEEKERSKNYLFTKIASPLLSVVEDELLSKHLDDLLENQSTGFFSMIDSSNFEGLQLVYESFSRVELGVKSLKKYLAKYVAHHGKLINETTSQALEGKMAVGRLSSNATMATLWVQKVLALWDRLNTIISTTMDADRSILNSLSDAFVTFVDGYTRAPEYISLFIDDNLKKDARKAIEGSIEATLQNSVTLFRFISEKDVFEKYYKTHLAKRLLNNRSISSDAELGMISRLKQEAGNVFTQKLEGMFNDMNLSQELLQEYKHNSALQSAKPALDLNVSILASTFWPIDLSPHKIKCNFPKVLLAQIDQFTDFYLSKHTGRKLLWYPSMGSADVRVNFKDRKYDLNVSTIASVILLLFQDLKENQCLIFEEILEKTNIEVGDLKRNLQSLACAKYKILLKDPKGREVNAGDKFYFNENFVSNLARIKISTVAQTRVEDDSERKRTLEKVDESRKHQADACIVRVMKDRKVCEHNQLMAEVTRQLNPRFHPSPMMIKRRIEALIEREYLQRQADNGRIYEYLA
partner: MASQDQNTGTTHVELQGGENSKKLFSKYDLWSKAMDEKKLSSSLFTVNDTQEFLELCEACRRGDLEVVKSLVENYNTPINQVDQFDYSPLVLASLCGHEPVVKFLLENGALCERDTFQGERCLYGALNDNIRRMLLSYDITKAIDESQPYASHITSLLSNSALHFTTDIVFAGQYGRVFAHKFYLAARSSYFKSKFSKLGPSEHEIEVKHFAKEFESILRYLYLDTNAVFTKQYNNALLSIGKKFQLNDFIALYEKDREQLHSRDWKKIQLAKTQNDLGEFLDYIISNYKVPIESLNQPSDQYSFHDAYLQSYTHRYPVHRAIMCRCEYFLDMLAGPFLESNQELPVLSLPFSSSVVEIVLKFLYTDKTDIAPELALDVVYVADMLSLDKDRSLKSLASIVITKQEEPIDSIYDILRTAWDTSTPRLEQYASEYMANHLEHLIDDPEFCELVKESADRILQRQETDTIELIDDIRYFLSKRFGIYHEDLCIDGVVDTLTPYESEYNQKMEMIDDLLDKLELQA
B2: BTB/POZ domain-containing protein 3 (Schizosaccharomyces pombe (strain ATCC 38366 / 972)), Q10225 (parent)
chain: B1 partner
partner: B1 chain

Variants of: B1
Conditions: with btb3_schpo btb3, Q10225
In the case of Y50G, the “effect of a mutation on the interaction” value is reported as “disrupting interaction”.

Variants of: B2
Conditions: with cul3_schpo cul3, Q09760
For MASQDQNTGTTHVELQGGENSKKLFSKYDLWSKAMDEKKLSSSLFTVNDTQEFLELCEACRRGDLEVVKSLVENYNTPINQVDQFDYSPLVLASLCGHEPVVKFLLENGALCERDTFQGERCLYGALNDNIRRMLLSYDITKAIDESQPYASHITSLLSNSALHFTTAIVFAGQYGRVFAHKFYLAARSSYFKSKFSKLGPSEHEIEVKHFAKEFESILRYLYLDTNAVFTKQYNNALLSIGKKFQLNDFIALYEKDREQLHSRDWKKIQLAKTQNDLGEFLDYIISNYKVPIESLNQPSDQYSFHDAYLQSYTHRYPVHRAIMCRCEYFLDMLAGPFLESNQELPVLSLPFSSSVVEIVLKFLYTDKTDIAPELALDVVYVADMLSLDKDRSLKSLASIVITKQEEPIDSIYDILRTAWDTSTPRLEQYASEYMANHLEHLIDDPEFCELVKESADRILQRQETDTIELIDDIRYFLSKRFGIYHEDLCIDGVVDTLTPYESEYNQKMEMIDDLLDKLELQA [D168A], the “effect of a mutation on the interaction” value was “disrupting interaction”. With MASQDQNTGTTHVELQGGENSKKLFSKYDLWSKAMDEKKLSSSLFTVNDTQEFLELCEACRRGDLEVVKSLVENYNTPINQVDQFDYSPLVLASLCGHEPVVKFLLENGALCERDTFQGERCLYGALNDNIRRMLLSYDITKAIDESQPYASHITSLLSNSALHFTTDIVFAGQYGRVFALKFYLAARSSYFKSKFSKLGPSEHEIEVKHFAKEFESILRYLYLDTNAVFTKQYNNALLSIGKKFQLNDFIALYEKDREQLHSRDWKKIQLAKTQNDLGEFLDYIISNYKVPIESLNQPSDQYSFHDAYLQSYTHRYPVHRAIMCRCEYFLDMLAGPFLESNQELPVLSLPFSSSVVEIVLKFLYTDKTDIAPELALDVVYVADMLSLDKDRSLKSLASIVITKQEEPIDSIYDILRTAWDTSTPRLEQYASEYMANHLEHLIDDPEFCELVKESADRILQRQETDTIELIDDIRYFLSKRFGIYHEDLCIDGVVDTLTPYESEYNQKMEMIDDLLDKLELQA [H181L] the “effect of a mutation on the interaction” value was “disrupting interaction”.
